Results as given in patent US20210302435A1 (SEATTLE CHILDREN S HOSPITAL D B A SEATTLE CHILDREN S …, published 2021).
Blank lines part the entries; values can stand above or below the binder they belong to.

Legend:
[1] = biological target: T1, IDUA 218 signature peptide (IDUA 218-230); test: immuno-SRM, mAb on Protein G magnetic beads, peptide capture from PBMC digest
T1 construct: Endogenous tryptic peptide from digested DBS, PBMC or buccal swab samples; An internal standard version of the same peptide (1.25 fmol) was captured alongside it; also called first IDUA signature peptide
T1 peptide: LGGPGDSFHTPPR

[2] = biological target: T2, IDUA 462 signature peptide (IDUA 462-474); test: as above
T2 construct: Endogenous tryptic peptide from digested DBS, PBMC or buccal swab samples; An internal standard version of the same peptide (1.25 fmol) was captured alongside it; also called second IDUA signature peptide
T2 peptide: GVPPGPGLVYVTR

binding result [1]: binds
B1: anti-IDUA 218 monoclonal antibody (antibody, V domains shown)
VH: QVQLQQPGTELVKPGASVKLSCKASGYTFTRYWMHWVKQRPGQGLEWIGEINPSNGGTNYNEKFKNKATLNVDKSSSTAYMQLSSLTSEDSAVYYCTLAMDYWGQGTSVTVSS
VL: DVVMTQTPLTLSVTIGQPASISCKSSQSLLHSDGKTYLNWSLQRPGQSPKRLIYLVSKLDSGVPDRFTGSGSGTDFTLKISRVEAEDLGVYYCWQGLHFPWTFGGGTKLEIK
notes: Used as a monoclonal antibody coated on Protein G magnetic beads (1 ug per assay)

binding result [2]: binds
B2: anti-IDUA 462 monoclonal antibody (antibody, V domains shown)
VH: EVQLQQSGAELVKPGASVKLSCTASGFNIKDTYMHWVNQRPEQGLEWIGRIDPANGNTKYGPKFQGKATITADTSSNTAYLQLSSLTSEDTAVYYCAQTARAPFAYWGQGTLVTVSA
VL: DIVITQDEVSNPVTSGESVSISCRSSKSLLYKDGKTYLNWFLQRPGQSPQLLVYWMSTRASGVSDRFSGSGSGTDFTLKISRVKAEDVGMYYCQQVVEYPFTFGTGTKLEIK
notes: Used as a monoclonal antibody coated on Protein G magnetic beads (4 ug per assay)
